From patent US20230125550A1 (ARCELLX, published 2023) come the findings set out here.

Sequences and labels used below:
T1: recombinant human CD123-Fc (human, UniProt P26951 19-305)
T1 construct: not shown: Fc part of CD123-Fc
T1 sequence: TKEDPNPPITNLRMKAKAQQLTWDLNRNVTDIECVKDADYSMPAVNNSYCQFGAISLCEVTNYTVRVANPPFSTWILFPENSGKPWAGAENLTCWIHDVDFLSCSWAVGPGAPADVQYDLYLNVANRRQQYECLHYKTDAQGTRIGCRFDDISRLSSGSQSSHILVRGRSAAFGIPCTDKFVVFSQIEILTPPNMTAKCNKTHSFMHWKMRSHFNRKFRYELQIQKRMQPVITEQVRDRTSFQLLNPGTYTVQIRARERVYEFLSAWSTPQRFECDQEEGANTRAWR

B1: SEQ ID NO 923 (designed binder)
chain: MGSWVNFKTHLARIKVHLEALGGSEAELALFEHDIANFEQVLQQYKGKGNPEVEALRKEAAAIRDELQAYRHN
B2: SEQ ID NO 925 (designed binder)
chain: MGSWKTFKIELAGIKLELEALGGSEAELAGFENAIAQFESSLQYYKGKGNPEVEALRKEAAAIRDELQAYRHN
B3: SEQ ID NO 926 (designed binder)
chain: MGSWWEFKVRLSAIQYRLYALGGSEAELAAFEKEIAAFESELQAYKGKGNPEVEALREQAALIRTILQAYRHN
B4: SEQ ID NO 933 (designed binder)
chain: MGSWWEFKVRLRAIEYRLSALGGSEAELAAFEKEIAAFESELQAYKGKGNPEVEELRVLAASIRIHLQAYRHN
B5: SEQ ID NO 928 (designed binder)
chain: MGSWWEFQVRLRAIQYRLNALGGSEAELAAFEKEIAAFESELQAYKGKGNPEVEYLRGLAAQIRFDLQAYRHN
B6: SEQ ID NO 929 (designed binder)
chain: MGSWWEFKIRLYAIEYRLNALGGSEAELAAFEKEIAAFESELQAYKGKGNPEVEALRAKAAQIRYNLQAYRHN
B7: SEQ ID NO 927 (designed binder)
chain: MGSWWEFHIRLHAINYRLAALGGSEAELAAFEKEIAAFESELQAYKGKGNPEVEALRELAAKIRGDLQAYRHN
B8: SEQ ID NO 935 (designed binder)
chain: MGSWIEFWVRLNAILYRLYALGGSEAELAAFEKEIAAFESELQAYKGKGNPEVEALRDSAAEIRRWLQAYRHN
B9: SEQ ID NO 936 (designed binder)
chain: MGSWVEFWIRLNAIKYRLLALGGSEAELAAFEKEIAAFESELQAYKGKGNPEVEKLRQDAADIRELLQAYRHN
B10: SEQ ID NO 937 (designed binder)
chain: MGSWTEFWWRLSAIVYRLNALGGSEAELAAFEKEIAAFESELQAYKGKGNPEVEELRDMAADIRSLLQAYRHN
B11: SEQ ID NO 938 (designed binder)
chain: MGSWWEFYLRLRAISYRLQALGGSEAELAAFEKEIAAFESELQAYKGKGNPEVEGLRQDAAEIRKLLQAYRHN
B12: SEQ ID NO 911 (designed binder)
chain: MGSWHEFRWRLFAIWQRLHALGGSEAELAAFEKEIAAFESELQAYKGKGNPEVEWLRLDAALIRVMLQAYRHN
B13: SEQ ID NO 920 (designed binder)
chain: MGSWYEFRWRLHAIWLRLGALGGSEAELAAFEKEIAAFESELQAYKGKGNPEVEWLRQDAAQIRYILQAYRHN
B14: SEQ ID NO 924 (designed binder)
chain: MGSWLVFKDELAGIKNYLEALGGSEAELATFEQDIAWFEQWLQNYKGKGNPEVEALRKEAAAIRDELQAYRHN
B15: SEQ ID NO 939 (designed binder)
chain: MGSWWEFHVRLRAIEYRLEALGGSEAELAAFEKEIAAFESELQAYKGKGNPEVEQLRLIAANIRHLLQAYRHN
B16: SEQ ID NO 942 (designed binder)
chain: MGSWWEFQVRLAAIEYRLKALGGSEAELAAFEKEIAAFESELQAYKGKGNPEVENLRQLAAHIRSVLQAYRHN
B17: SEQ ID NO 943 (designed binder)
chain: MGSWWEFQVRLSAIEYRLTALGGSEAELAAFEKEIAAFESELQAYKGKGNPEVEELRQKAARIRSLLQAYRHN
B18: SEQ ID NO 940 (designed binder)
chain: MGSWWEFHVRLKAIEYRLLALGGSEAELAAFEKEIAAFESELQAYKGKGNPEVEDLRYIAANIRQLLQAYRHN
B19: SEQ ID NO 930 (designed binder)
chain: MGSWFEFNIRLHAIEYRLKALGGSEAELAAFEKEIAAFESELQAYKGKGNPEVEELRNYAASIRKLLQAYRHN
B20: SEQ ID NO 931 (designed binder)
chain: MGSWFEFEIRLRAIEYRLSALGGSEAELAAFEKEIAAFESELQAYKGKGNPEVEKLRELAAEIRYALQAYRHN
B21: SEQ ID NO 944 (designed binder)
chain: MGSWWEFNIRLHAIDYRLKALGGSEAELAAFEKEIAAFESELQAYKGKGNPEVELLREKAAQIRAQLQAYRHN
B22: SEQ ID NO 932 (designed binder)
chain: MGSWFEFKIRLYAIQYRLSALGGSEAELAAFEKEIAAFESELQAYKGKGNPEVEELRNLAAEIRHSLQAYRHN
B23: SEQ ID NO 945 (designed binder)
chain: MGSWWEFRVRLEAIDYRLKALGGSEAELAAFEKEIAAFESELQAYKGKGNPEVEYLRMKAATIRAILQAYRHN
B24: SEQ ID NO 922 (designed binder)
chain: MGSWWGFKVNLAWIKWKLEALGGSEAELAYFELWIANFEHSLQEYKGKGNPEVEALRKEAAAIRDELQAYRHN
B25: SEQ ID NO 934 (designed binder)
chain: MGSWSEFWFRLHAILYRLQALGGSEAELAAFEKEIAAFESELQAYKGKGNPEVETLRDAAAEIRVALQAYRHN
B26: SEQ ID NO 921 (designed binder)
chain: MGSWHEFLRRLLAIEMRLYALGGSEAELAAFEKEIAAFESELQAYKGKGNPEVEHLRVRAASIRQMLQAYRHN
B27: SEQ ID NO 730 (designed binder)
chain: MGSWWEFEDRLMAIYDRLYALGGSEAELAAFEKEIAAFESELQAYKGKGNPEVEYLRAEAALIRETLQAYRHN
B28: SEQ ID NO 731 (designed binder)
chain: MGSWFEFEDRLYAIEDRLYALGGSEAELAAFEKEIAAFESELQAYKGKGNPEVEYLRWGAATIRDELQAYRHN
B29: SEQ ID NO 736 (designed binder)
chain: MGSWFEFVDRLEAIEMRLFALGGSEAELAAFEKEIAAFESELQAYKGKGNPEVELLRWRAAMIRYDLQAYRHN
B30: SEQ ID NO 700 (designed binder)
chain: MGSWNEFYDRLSAIYFRLQALGGSEAELAAFEKEIAAFESELQAYKGKGNPEVEHLRWYAADIRMILQAYRHN
B31: SEQ ID NO 699 (designed binder)
chain: MGSWYEFYDRLSAIYARLQALGGSEAELAAFEKEIAAFESELQAYKGKGNPEVEDLRWYAADIRYMLQAYRHN
B32: SEQ ID NO 703 (designed binder)
chain: MGSWVEFYDRLHAIYFRLLALGGSEAELAAFEKEIAAFESELQAYKGKGNPEVEDLRWYAADIRLVLQAYRHN
B33: SEQ ID NO 704 (designed binder)
chain: MGSWKEFDNRLYAIEDRLRALGGSEAELAAFEKEIAAFESELQAYKGKGNPEVEHLRWYAADIRMILQAYRHN
B34: SEQ ID NO 701 (designed binder)
chain: MGSWNEFYDRLSAIYFRLQALGGFEAELAAFEKEIAAFESELQAYKGKGNPEVEHLRWYAADIRMILQAYRHN
B35: SEQ ID NO 698 (designed binder)
chain: MGSWYEFYNRLSAIYARLQALGGSEAELAAFEKEIAAFESELQAYKGKGNPEVEDLRWYAADIRYMLQAYRHN
B36: SEQ ID NO 702 (designed binder)
chain: MGSWEEFYDRLGAIFARLHALGGSEAELAAFEKEIAAFESELQAYKGKGNPEVEDLRWYAADIRMILQAYRHN
B37: SEQ ID NO 691 (designed binder)
chain: MGSWYEFEDRLDAIQWRLWALGGSEAELAAFEKEIAAFESELQAYKGKGNPEVEFLRESAANIRQHLQAYRHN
B38: SEQ ID NO 692 (designed binder)
chain: MGSWSEFEYRLFAIENRLDALGGSEAELAAFEKEIAAFESELQAYKGKGNPEVEFLREEAAMIRQLLQAYRHN
B39: SEQ ID NO 697 (designed binder)
chain: MGSWVEFWHRLDAIKARLNALGGSEAELAAFEKEIAAFESELQAYKGKGNPEVEDLRWYAADFRLILQAYRHN

In one test the target is HER2 (Homo sapiens (Human), UniProt P04626 23-652). Description: phage ELISA, A450 target/A450 IgG1-Fc. In a few lines:
(§1)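 Individual phagemid colonies picked from panning output were rescued in 96-well format using VCSM13 helper phage. Plates received 1.3 microg/ml goat anti-human IgG1-Fc antibody, followed by 5 nM recombinant human target or IgG1-Fc, and then 50 microl of phage diluted 5× in ELISA blocking buffer. An HRP-conjugated anti-M13 antibody detected binding at 450 nm. For each clone, the ELISA ratio is the absorbance with target divided by that with IgG1-Fc, averaged over every screened well containing the clone.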
In general terms: ELISA stands for enzyme-linked immunosorbent assay.
The molecule B1 came in with an ELISA_avg of 7.91 ratio. Still for that read-out and setting: in the case of B2 it was 4.95 ratio; in that of B3, 5.17 ratio; in that of B4, 10.1 ratio. The molecule B5 displayed an ELISA_avg of 14.4 ratio. Still for that read-out and setting: in the case of B6 it was 4.49 ratio; in that of B7, 11.9 ratio. Same read-out and setting: in the case of B8 it was 3.91 ratio; in that of B9, 10.6 ratio; in that of B10, 5.76 ratio. Molecule B11 registered an ELISA_avg of 5.1 ratio. On the same count and under the same terms, in the case of B12 it was 10 ratio; in that of B13, 7.18 ratio; in that of B14, 3.28 ratio. The same measure, in the same setting: in the case of B15 it was 5.48 ratio; in that of B16, 6.33 ratio; in that of B17, 9.61 ratio. Molecule B18 displayed an ELISA_avg of 4.56 ratio. In turn, B19 returned an ELISA_avg of 7.86 ratio. Regarding B20, the ELISA_avg came out at 7.75 ratio. Same read-out and setting: with B21 the figure was 9.75 ratio; with B22, 13.1 ratio; with B23, 6.82 ratio. Still for that read-out and setting: with B24 the figure was 8.69 ratio; with B25, 14.8 ratio.

In turn, B26 registered an ELISA_avg of 8.15 ratio.

The target of a further test is T1, recombinant human CD123-Fc. Description: phage ELISA, A450 target/A450 IgG1-Fc. In a few lines:
as §1
Regarding B27, the ELISA_avg is 15.3 ratio. Same read-out and setting: with B28 the figure was 4.7 ratio; with B29, 7.1 ratio; with B30, 10.6 ratio. On the same count and under the same terms, in the case of B31 it was 5.3 ratio; in that of B32, 4.8 ratio; in that of B33, 3.9 ratio. Turning to B34, the ELISA_avg worked out at 9 ratio. The same measure, in the same setting: with B35 the figure was 10.6 ratio. Same read-out and setting: with B36 the figure was 3.9 ratio; with B37, 6.3 ratio. Same read-out and setting: in the case of B38 it was 3.2 ratio; in that of B39, 3.5 ratio.
